Consider one molecule from patent US20260151508A1 (BEAM THERAPEUTICS, published 2026).

The target of assay [1] is T1, PiM (wild type) human alpha-1 antitrypsin (AAT) protein, bacterially expressed (human, UniProt P01009 25-418).
T1 construct: The signal peptide is left out here; also called PiM (WT) AAT; wild-type AAT
In words: in vitro neutrophil elastase binding assay, bacterially expressed AAT.

In assay [2] the target is T2, PiM+Bystander (D365G) human alpha-1 antitrypsin (AAT) protein, bacterially expressed (human, UniProt P01009 25-418).
T2 construct: Wild-type AAT altered to include D365G; also called D365G AAT protein; AAT protein with a D365G alteration
T2 sequence (P01009 25-418 D365G): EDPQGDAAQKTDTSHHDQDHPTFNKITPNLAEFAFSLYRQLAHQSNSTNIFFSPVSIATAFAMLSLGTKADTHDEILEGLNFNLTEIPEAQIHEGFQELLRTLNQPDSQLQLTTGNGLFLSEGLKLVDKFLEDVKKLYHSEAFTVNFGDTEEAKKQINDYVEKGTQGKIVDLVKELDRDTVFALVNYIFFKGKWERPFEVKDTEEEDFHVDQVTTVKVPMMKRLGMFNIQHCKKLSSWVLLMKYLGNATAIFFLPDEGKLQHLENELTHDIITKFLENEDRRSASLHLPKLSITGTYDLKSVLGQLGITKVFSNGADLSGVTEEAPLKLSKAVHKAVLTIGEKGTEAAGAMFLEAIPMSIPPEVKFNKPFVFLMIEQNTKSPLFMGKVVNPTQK
Described as above.

T1 sequence (P01009 25-418): as the sequence (P01009 25-418 D365G) above, with G341D counted along it

B1: human neutrophil elastase (enzyme, UniProt P08246 30-247, looked up)
chain: IVGGRRARPHAWPFMVSLQLRGGHFCGATLIAPNFVMSAAHCVANVNVRAVRVVLGAHNLSRREPTRQVFAVQRIFENGYDPVNLLNDIVILQLNGSATINANVQVAQLPAQGRRLGNGVQCLAMGWGLLGRNRGIASVLQELNVTVVTSLCRRSNVCTLVRGRQAGVCFGDSGSPLVCNGLIHGIASFVRGGCASGLYPDAFAPVAQFVNWIDSIIQ
notes: also called HNE
Regarding B1, the binding result in assay [1] and in assay [2] was “binds” in each case.
